The source of these data is the FLAb antibody collection.

The chains are these.
B1: unnamed (protein)
chain 1: QVQLQQSGTVLARPGASVKMSCKASGYSFTRYWMHWIKQRPGQGLEWIGAIYPGNSDTSYNQKFEGKAKLTAVTSASTAYMELSSLTHEDSAVYYCSRDYGYYFDFWGQGTTLTVSS
chain 2: QIVSTQSPAIMSASPGEKVTMTCSASSSRSYMQWYQQKPGTSPKRWIYDTSKLASGVPARFSGSGSGTSYSLTISSMEAEDAATYYCHQRSSYTFGGGTKLEIK
B2: unnamed (protein)
chain 1: EVQLLESGGGLVQPGGSLRLSCAASGFTFSSYIMMWVRQAPGKGLEWVSSIYPSGGITFYADTVKGRFTISRDNSKNTLYLQMNSLRAEDTAVYYCARIKLGTVTTVDYWGQGTLVTVSS
chain 2: QSALTQPASVSGSPGQSITISCTGTSSDVGGYNYVSWYQQHPGKAPKLMIYDVSNRPSGVSNRFSGSKSGNTASLTISGLQAEDEADYYCSSYTSSSTRVFGTGTKVTVL
B3: unnamed (protein)
chain 1: QVQLVQSGAEVKKPGSSVKVSCKASGYTFTDQTIHWMRQAPGQGLEWIGYIYPRDDSPKYNENFKGKVTITADKSTSTAYMELSSLRSEDTAVYYCAIPDRSGYAWFIYWGQGTLVTVSS
chain 2: DIQMTQSPSSLSASVGDRVTITCKASRDVAIAVAWYQQKPGKVPKLLIYWASTRHTGVPSRFSGSGSRTDFTLTISSLQPEDVADYFCHQYSSYPFTFGSGTKLEIK
B4: unnamed (protein)
chain 1: EVQLVESGGGLVQPGGSLRLSCAASGFTFSSYWMSWVRQAPGKGLEWVAYIKQDGNEKYYVDSVKGRFTISRDNAKNSLYLQMNSLRAEDTAVYYCAREGILWFGDLPTFWGQGTLVTVSS
chain 2: DIQMTQSPSSLSASVGDRVTITCRASQGISNWLAWYQQKPEKAPKSLIYAASSLQSGVPSRFSGSGSGTDFTLTISSLQPEDFATYYCQQYDSYPRTFGQGTKVEIK
B5: unnamed (protein)
chain 1: EVQLVQSGGGLVKPGGSLRLSCAASGFTFSSFAMHWVRQAPGKGLEWISVIDTRGATYYADSVKGRFTISRDNAKNSLYLQMNSLRAEDTAVYYCARLGNFYYGMDVWGQGTTVTVSS
chain 2: EIVLTQSPGTLSVSPGERATLSCRASQSIGSSLHWYQQKPGQAPRLLIKYASQSLSGIPDRFSGSGSGTDFTLTISRLEPEDFAVYYCHQSSRLPHTFGQGTKVEIK
B6: unnamed (protein)
chain 1: EVQLVESGGGLVQPGGSLRLSCAASGFTFSNYGMSWVRQAPGKGLEWVASISSGGGSTYYPDNVKGRFTISRDDAKNSLYLQMNSLRAEDTAVYYCARGGAGIDYWGQGTLVTVSS
chain 2: DIQMTQSPSSLSASVGDRVTITCKSIQTLLYSSNQKNYLAWFQQKPGKAPKLLIYWASIRKSGVPSRFSGSGSGTDFTLTISSLQPEDLATYYCQQYYSYPLTFGGGTKLEIK
B7: unnamed (protein)
chain 1: QVQLVQSGAEVKKPGASVKVSCKASGHIFSNYWIQWVRQAPGQGLEWMGEILPGSGHTEYTENFKDRVTMTRDTSTSTVYMELSSLRSEDTAVYYCARYFFGSSPNWYFDVWGQGTLVTVSS
chain 2: DIQMTQSPSSLSASVGDRVTITCGASENIYGALNWYQQKPGKAPKLLIYGATNLADGVPSRFSGSGSGTDFTLTISSLQPEDFATYYCQNVLNTPLTFGQGTKVEIK
B8: unnamed (protein)
chain 1: EVQLVESGGGLVQPGGSLRLSCAVSGLSLTSNSVNWIRQAPGKGLEWVGLIWSNGDTDYNSAIKSRFTISRDTSKSTVYLQMNSLRAEDTAVYYCAREYYGYFDYWGQGTLVTVSS
chain 2: DIQMTQSPSSLSASVGDRVTITCLASEGISSYLAWYQQKPGKAPKLLIYGANSLQTGVPSRFSGSGSATDYTLTISSLQPEDFATYYCQQSYKFPNTFGQGTKVEVK
B9: unnamed (protein)
chain 1: QVQLVQSGSELKKPGASVKVSCKASGYTFTNYGMNWVRQAPGQGLEWMGWINTYTGEPTYADDFTGRFVFSLDTSVSTAYLQISSLKAEDTAVYYCARNPINYYGINYEGYVMDYWGQGTLVTVSS
chain 2: not shown
B10: unnamed (protein)
chain 1: EVQLVESGGGLVQPGGSLRLSCAASGYDFTHYGMNWVRQAPGKGLEWVGWINTYTGEPTYAADFKRRFTFSLDTSKSTAYLQMNSLRAEDTAVYYCAKYPYYYGTSHWYFDVWGQGTLVTVSS
chain 2: DIQLTQSPSSLSASVGDRVTITCSASQDISNYLNWYQQKPGKAPKVLIYFTSSLHSGVPSRFSGSGSGTDFTLTISSLQPEDFATYYCQQYSTVPWTFGQGTKVEIK
B11: unnamed (protein)
chain 1: EVQLVESGGGLVQPGGSLRLSCAASGYEFSRSWMNWVRQAPGKGLEWVGRIYPGDGDTNYSGKFKGRFTISADTSKNTAYLQMNSLRAEDTAVYYCARDGSSWDWYFDVWGQGTLVTVSS
chain 2: DIQMTQSPSSLSASVGDRVTITCRSSQSIVHSVGNTFLEWYQQKPGKAPKLLIYKVSNRFSGVPSRFSGSGSGTDFTLTISSLQPEDFATYYCFQGSQFPYTFGQGTKVEIK
B12: unnamed (protein)
chain 1: QVQLQQPGAELVKPGASVKMSCKASGYTFTSYNMHWVKQTPGRGLEWIGAIYPGNGDTSYNQKFKGKATLTADKSSSTAYMQLSSLTSEDSAVYYCARSTYYGGDWYFNVWGAGTTVTVSA
chain 2: QIVLSQSPAILSASPGEKVTMTCRASSSVSYIHWFQQKPGSSPKPWIYATSNLASGVPVRFSGSGSGTSYSLTISRVEAEDAATYYCQQWTSNPPTFGGGTKLEIK
B13: unnamed (protein)
chain 1: EVQLVQSGGGLVKPGGSLRLSCAASGFTFSSYSMNWVRQAPGKGLEWVSSISSSSSYIYYADSVKGRFTISRDNAKNSLYLQMNSLRAEDTAVYYCARVTDAFDIWGQGTMVTVSS
chain 2: DIQMTQSPSSVSASIGDRVTITCRASQGIDNWLGWYQQKPGKAPKLLIYDASNLDTGVPSRFSGSGSGTYFTLTISSLQAEDFAVYFCQQAKAFPPTFGGGTKVDIK
B14: unnamed (protein)
chain 1: QVQLVQSGAEVKKPGASVKVSCKASGYIFSNYWIQWVRQAPGQGLEWMGEILPGSGSTEYAQKFQGRVTMTADTSTSTAYMELSSLRSEDTAVYYCARYFFGSSPNWYFVWGQGT
chain 2: DIQMTQSPSLSASVGDRVTITCGASENIYGALNWYQRKPGKAPKLLIYGATNLADGVPSRFSGSGSGTDYTLTISSLQPEDFATYYCQNVLNTPLTFGQGTKVEIK
B15: unnamed (protein)
chain 1: QVQLVESGGGVVQPGRSLRLSCTASGFTFKNYAMHWVRQAPAKGLEWVATISYDGRNIQYADSVKGRFTFSRDNSQDTLYLQLNSLRPEDTAVYYCARPVRSRWLQLGLEDAFHIWGQGTMVTVSS
chain 2: AIRMTQSPSSFSASTGDRVTITCRASQDIRNYVAWYQQKSGKAPKFLIYAASTLQSGVPSRFSGSGSGTDFTLTINSLQSEDFATYYCQQYYNSPPTFGQGTRVEIT
B16: unnamed (protein)
chain 1: QVQLVQSGAEVKKPGASVKVSCKASGYYTEAYYIHWVRQAPGQGLEWMGRIDPATGNTKYAPRLQDRVTMTRDTSTSTVYMELSSLRSEDTAVYYCASLYSLPVYWGQGTTVTVSS
chain 2: DVVMTQSPLSLPVTLGQPASISCKSSQSLLYSDAKTYLNWFQQRPGQSPRRLIYQISRLDPGVPDRFSGSGSGTDFTLKISRVEAEDVGVYYCLQGTHYPVLFGQGTRLEIK
B17: unnamed (protein)
chain 1: EVQLVESGGGLVQPGGSLRLSCAASGFTFTDYTMDWVRQAPGKGLEWVADVNPNSGGSIYNQRFKGRFTLSVDRSKNTLYLQMNSLRAEDTAVYYCARNLGPSFYFDYWGQGTLVTVSS
chain 2: DIQMTQSPSSLSASVGDRVTITCKASQDVSIGVAWYQQKPGKAPKLLIYSASYRYTGVPSRFSGSGSGTDFTLTISSLQPEDFATYYCQQYYIYPYTFGQGTKVEIK
B18: unnamed (protein)
chain 1: QVQLQQSGAELVKPGASVKLSCKASGYTFTSYDINWVRQRPEQGLEWIGWIFPGDGSTKYNEKFKGKATLTTDKSSSTAYMQLSRLTSEDSAVYFCAREDYYDNSYYFDYWGQGTTLTVSS
chain 2: DIQMTQTTSSLSASLGDRVTISCRASQDISNYLNWYQQKPDGTVKLLIYYTSRLHSGVPSRFSGSGSGTDYSLTISNLEQEDIATYFCQQGNTLPWTFGGGTKLEIK
B19: unnamed (protein)
chain 1: EVQLVQSGAEVKKPGASVKVSCKASGYTFTDYNMHWVRQAPGQGLEWMGEINPNSGGAGYNQKFKGRVTMTTDTSTSTAYMELRSLRSDDTAVYYCARLGYDDIYDDWYFDVWGQGTTVTVSS
chain 2: DIQMTQSPSSLSASVGDRVTITCRASQDISNYLNWYQQKPGKAPKLLIYYTSRLLSGVPSRFSGSGSGTDFTLTISSLQPEDFATYYCQQGDTLPYTFGGGTKVEIK
B20: unnamed (protein)
chain 1: EVQLVESGGGLVQPGGSLRLSCAASGYTFSSYWIEWVRQAPGKGLEWIGEILPGGGDTNYNEIFKGRATFSADTSKNTAYLQMNSLRAEDTAVYYCTRRVPIRLDYWGQGTLVTVSS
chain 2: DIQLTQSPSSLSASVGDRVTITCKASQSVDYEGDSFLNWYQQKPGKAPKLLIYAASNLESGVPSRFSGSGSGTDFTLTISSLQPEDFATYYCQQSNEDPLTFGQGTKVEIK

The nature of the data set: patients with anti-drug antibodies; higher = more immunogenic.
Consider B1, for which the “patients with anti-drug antibodies” value amounted to 1.5%.

For the protein B2, the “patients with anti-drug antibodies” value amounted to 5%.

As for B3, the “patients with anti-drug antibodies” value is 24%.

On to B4, for which the “patients with anti-drug antibodies” value came to 0%.

In the case of B5, the “patients with anti-drug antibodies” value worked out at 0%.

In the case of B6, the “patients with anti-drug antibodies” value amounted to 0%.

In the case of B7, the “patients with anti-drug antibodies” value was determined as 0.2%.

Consider B8, for which the “patients with anti-drug antibodies” value came to 5%.

In the case of B9, the “patients with anti-drug antibodies” value is 9.4%.

As for B10, the “patients with anti-drug antibodies” value worked out at 3.5%.

B11: the “patients with anti-drug antibodies” value is 1.4%.

For the protein B12, the “patients with anti-drug antibodies” value is 11%.

In the case of B13, the “patients with anti-drug antibodies” value turned out to be 4.1%.

For B14, the “patients with anti-drug antibodies” value came out at 0%.

Consider B15, for which the “patients with anti-drug antibodies” value was 0%.

Turning to B16, the “patients with anti-drug antibodies” value was found to be 0%.

On to B17, for which the “patients with anti-drug antibodies” value worked out at 2.8%.

Turning to B18, the “patients with anti-drug antibodies” value is 85%.

Turning to B19, the “patients with anti-drug antibodies” value was 18.1%.

In the case of B20, the “patients with anti-drug antibodies” value was 2.6%.
